Test [1] deals with βAPP-C100 binding site on NGF-treated PC12 cells. Description: competition with 35S-βAPP-C100 for binding to NGF-treated PC12 cells.
For test [2] the target is unchanged. Description: saturation binding of 35S-βAPP-C100 to NGF-treated PC12 cells, filtration, 4° C.
For test [3] the target is unchanged. The experiment in a line: inhibition of 35S-βAPP-C100 binding to NGF-treated PC12 cells by unlabeled βAPP-C100.

Where only a bound is given, the exact number is not on record here.

One may read the IC50 as the concentration needed to halve the response being measured. High values mean weaker potency, low ones greater potency. “Phe687-βAPP-C100 (from UniProt P05067-4) (ligand)”: in test [1], the IC50 was more than 14 nM and the times less potent than the native form was more than 20 times.

As usually defined, the Kd is the constant that tells how readily two partners part at equilibrium. As to “flag-βAPP-C100 (from UniProt P05067-4) (ligand)”, in test [2], the Kd turned out to be 0.81 nM. The same substance showed a half-inhibitory concentration (IC50) in test [3] of 1.7 nM.
